B1: SEQ ID NOs: 305/309 (HCVR/LCVR) (antibody, V domains shown)
VH: EVQLVESGGGLVKPGGSLRLSCAASGFTFGSYSMSWVRQAPGKGLEWVSSISRSSSYIYNADSVRGRLTISRDNAKNSLYLQMNSLRVEDTAVYYCARDQPLPDILTGYYTGPLDYWGQGTLVTVSS
VL: not shown
B2: 002_P2C4 (antibody, V domains shown)
VH: QVQLVESGAEVKKPGSSVKVSCKASGGTFSSYGINWVRQAPGQGLEWMGGIIPIFGTANYAQKFQGRVTITTDESTSTAYMELSSLRSEDTAVYYCASFGDDSGDEGVRWGQGTLVTVSS
VL: EIVMTQSPATLSLSPGERATLSCRASQSVSSYLAWYQQKPGQAPRLLIYDASNRATGIPARFSGSGSGTDFTLTISSLEPEDFAVYYCQQRSNWPPYTFGQGTKVEIK
B3: SEQ ID NOs: 453/457 (HCVR/LCVR) (antibody, V domains shown)
VH: EVQLVESGVEVKKPGASVKVSCKAFGYTFTGQDMHWVRQAPGQGLEWMGWINPSSAGTNYAQKFQGRVTMTRDTSISTAYMELSRLRSDDTSVYYCRKMLTIFGKVNQTMLLISGAKGQWSPSLQWGQGTMVTVSS
VL: DIVMTQTPLSLSVTPGQPASISCKSGQSLLHSDGKTYLYWYLQKPGQPPQLLIYEVSNRFSGVPDRFSGSGSGTDFTLKISRVEAEDVGVYYCMQSIQLPPTFGQGTKVEIK
B4: SEQ ID NOs: 573/577 (HCVR/LCVR) (antibody, V domains shown)
VH: QVQLQESGPGLVKPSETLSLTCTASGGSISSSSYYWGWIRQPPGKGLEWIGSIYYSGSTYYNPSLKSRVTISVDTSKNQFSLKLSSVTAADTAVYYCARHPSGLYQLLNWGQGTLVTVSS
VL: AIRMTQSPSSLSASVGDRVTITCQASQDISNYLNWYQQKPGKAPKLLIYDASNLETGVPSRFSGSGSGTDFTFTISSLQPEDIATYYCQQYDNLLSLTFGGGTKVEIK
B5: COVA1-22 (antibody, V domains shown)
VH: EVQLVESGAEVKKPGASVKVSCKASGYTFTSYGISWVRQAPGQGLEWMGWISAYNGYTNSAQKLQGRVTMTTDTSTSTAYMELRSLRSDDTAVYYCARDLVDTAMVQTLDDYGMDVWGQGTMVTVSS
VL: not shown
B6: SEQ ID NOs: 397/401 (HCVR/LCVR) (antibody, V domains shown)
VH: EVQLVQSGAEVKKPGESLRISCKGSGYSFTSYWISWVRQMPGKGLEWMGRIDPSDSYTNYSPSFQGHVTISADKSISTAYLQWSSLKASDTAMYYCARPNPAGGYDSSGWVDAFDIWGQGTRVTVSS
VL: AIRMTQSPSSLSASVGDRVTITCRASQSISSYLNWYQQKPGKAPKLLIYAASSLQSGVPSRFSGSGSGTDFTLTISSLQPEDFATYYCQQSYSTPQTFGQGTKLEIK
B7: SEQ ID NOs: 445/449 (HCVR/LCVR) (antibody, V domains shown)
VH: EVQLVESGPGLVKPSQTLSLTCTVSGGSISSGDYYWSWIRQPPGKGLEWIGYIYYSGSTYYNPSLKSRVTISVDTSKNQFSLKLSSVTAADTAVYYCARGVEDPVVPAAIPWCWFDPWGQGTRVTVSS
VL: QSVLTQPPSVSVAPGQTARITCGGNNIGSKSVHWYQQKPGQAPVLVVYDDSDRPSGIPERFSGSNSGNTATLTISRVEAGDEADYYCQVWASSSVVFGGGTKLTVL
B8: SEQ ID NOs: 49/53 (HCVR/LCVR) (antibody, V domains shown)
VH: QVQLVESGAEVKKPGSSVKVSCKASGGTLSSYAITWVRQAPGQGLEWVGGIIPIFGTANYAQKFQGRVTITADESTSTAYMELSSLRSEDTAVYYCARVGAYDSSGYSNDYWGQGTLVTVSS
VL: DIQLTQSPATLSLSPGERATLSCRASQSVSSYLAWYQQKPGQAPRLLIYDASNRATGIPARFSGSGSGTDFTLTISSLEPEDFAVYYCQQRSNWPPRVTFGGGTKVEIK
B9: SEQ ID NOs: 533/537 (HCVR/LCVR) (antibody, V domains shown)
VH: EVQLVESGGGLVKPGGSLRLSCSASGFTFSNYNMDWVRQAPGKGLEWVSSISSSSSYIYLADSVKGRFTISRDNAKNSLYLQMNSLRAEDTAVYYCARVQKDIVVVPVALADYYYYGMDVWGQGTTVTVSS
VL: DIVMTQSPATLSVSPGERATLSCRASQSVSSNLAWYQQKPGQAPRLLIYGASTRATGIPARFSGSGSGTEFTLTISSLQPEDFAVYYCQQCYNWPPWTFGQGTRVEFK
B10: SEQ ID NOs: 629/633 (HCVR/LCVR) (antibody, V domains shown)
VH: QVQLVESRAEVKKPGSSVKVSCKASGGTFSSYAISWVRQAPGQGLEWMGRIIPILGITNYAQKFQGRVTITADKSTSTAYMELSSLRSEDTAVYYCARDAPDYYDSSGPTYFDYWGQGTLVTVSS
VL: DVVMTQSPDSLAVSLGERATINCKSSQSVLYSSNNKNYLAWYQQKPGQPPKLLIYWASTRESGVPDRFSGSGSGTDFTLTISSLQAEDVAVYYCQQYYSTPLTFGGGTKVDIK
B11: COVA2-07 (antibody, V domains shown)
VH: EVQLVETGGGLIQPGGSLRLSCAASGLTVSSNYMNWVRQAPGKGLEWVSVIYSGGSTYYADSVKGRFTISRDNSKNTLYLQMNSLRAEDTAVYYCAREAYGMDVWGQGTMVTVSS
VL: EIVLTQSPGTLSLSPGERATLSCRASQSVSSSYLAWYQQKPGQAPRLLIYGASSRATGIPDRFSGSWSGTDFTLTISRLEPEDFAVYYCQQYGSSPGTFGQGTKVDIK
B12: SEQ ID NOs: 153/157 (HCVR/LCVR) (antibody, V domains shown)
VH: QVQLVESGGGLVKPGGSLRLSCAASGFTFSSYSMNWVRQAPGKGLEWVSSISSSSSYIYYADSVKGRFTISRDDAKNSLFLQMNSLRAEDTAVYYCAGDQNLYCSGDSCYYHYYGMDVWGQGTVVTVSS
VL: NFMLTQPPSVSVAPGKTARITCGGNNIGSKSVHWYQQKPGQAPVLVIYYDSDRPSGIPERFSGSNSGNTATLTISRVEAGDEADYYCQVWDSSSDHWVFGGGTKLTVL
B13: SEQ ID NOs: 429/433 (HCVR/LCVR) (antibody, V domains shown)
VH: EVQLVESGGGVVQPGRSLRLSCAASGFTFSSYGMHWVRQAPGKGLEWVAVIWYDGSNKYYADSVKGRFTISRDNSKNTLYLQMDSLRAEDTAMYYCAKDKAPPCSSGWYYFDYWGQGTLVTVSS
VL: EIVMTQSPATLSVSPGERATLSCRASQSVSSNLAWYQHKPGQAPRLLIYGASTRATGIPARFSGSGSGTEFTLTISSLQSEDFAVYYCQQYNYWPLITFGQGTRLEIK
B14: SEQ ID NOs: 565/569 (HCVR/LCVR) (antibody, V domains shown)
VH: EVQLLESGAEVKKPGASVKISCKASGYTFTGYYMHWVRQAPGQGLEWMGWINPNSGGTNYAQKFQGRVTMTRDTSISTAYMELSRLRSDDTAVYYCARGDGDYYDSSGYYRPTLYNWLDPWGQGTRVTVSS
VL: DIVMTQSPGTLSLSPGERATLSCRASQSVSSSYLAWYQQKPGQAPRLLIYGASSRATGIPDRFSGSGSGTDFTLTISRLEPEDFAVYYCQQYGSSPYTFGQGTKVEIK
B15: SEQ ID NOs: 213/209 (HCVR/LCVR) (antibody, V domains shown)
VH: EVQLVESGPGLVKPSETLSLTCTVSGGSISSYYWSWIRQPPGKRLEWIGYIYYSGSTNYNPSLKSRVTISVDTSKNQFSLKLNSVTAADTAAYYCARGFDYWGQGTRVTVSS
VL: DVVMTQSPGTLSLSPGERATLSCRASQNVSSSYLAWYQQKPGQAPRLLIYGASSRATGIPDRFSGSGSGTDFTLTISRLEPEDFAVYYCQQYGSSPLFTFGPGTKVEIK
B16: 002_P1H10 (antibody, V domains shown)
VH: QVQLVETGGGLIQPGGSLRLSCAASGFTVSSNYMSWVRQAPGKGLEWVSVIYSGGSTYYADSVKGRFTISRDNSKNTLYLQMNSLRAEDTAVYYCARDLDTMGGMDVWGQGTRVTVSS
VL: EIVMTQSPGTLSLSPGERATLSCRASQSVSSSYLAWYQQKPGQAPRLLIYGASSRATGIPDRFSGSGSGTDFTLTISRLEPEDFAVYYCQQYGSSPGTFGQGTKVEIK
B17: SEQ ID NOs: 201/205 (HCVR/LCVR) (antibody, V domains shown)
VH: QLQLQESGPGLVKPSQTLSLTCTVSGGSISSGGYYWSWIRQLPGKGLEWIGYIYYSGSTYYNPSLKSRVTISVDTSKNQFSLNLSSVTAADTAVYYCARQQLDYYDSSGCFDYWGQGTLVTVSS
VL: DIVMTQSPSFLSASVGDRVTITCRASQGISSYLAWYQQKPGKAPKLLIYAASTLQSGVPSRFSGSGSGTEFTLTISSLQPEDFATYYCQQLHSYPLTFGGGTKVDIK
B18: SEQ ID NOs: 337/341 (HCVR/LCVR) (antibody, V domains shown)
VH: QVQLVQSGAEVKKPGATVKISCKVSGYTFTDYYMHWVQQAPGKGLEWMGLVDPEDGETIYAEKFQGRVTITADTSTDTAYMELSSLRSEDTAVYYCASSDSSGFVGSRGFDYWGQGTRVTVSS
VL: DIQLTQSPSSLSASVGDRVTITCRASQGIRNDLGWYQQKPGKAPKRLIYAASSLQSGVPSRFSGSGSGTEFTLTISSLQPEDFATYYCLQHNSYPPLFGQGTKVEIK
B19: SEQ ID NOs: 405/409 (HCVR/LCVR) (antibody, V domains shown)
VH: EVQLVESGAEVKKPGASVKVSCKVSGYTLPELSMHWVRQTPGKGLEWMGGFDPEDGETIYAQKFQGRVTMTEDTSTDTAYMELSSLRSEDTAVYYCATGPTIAAAATNWFDPGGQGTLVTVSS
VL: QPVLTQPASVSGSPGQSITISCTGTSSDVGGYNYVSWYQQHPGKAPKLMIYDVSNRPSGVSNRFSGSRSGDTASLTISGLQAEDEADYYCSSYTSSSTWVFGGGTKLTVL

Columns and labels:
[1] = biological target: T1, stabilized prefusion SARS-CoV-2 S ectodomain (SARS-CoV-2 (Wuhan-Hu-1), UniProt P0DTC2 15-1138); test: not named there; ELISA in Example 4
[2] = biological target: T1, stabilized prefusion SARS-CoV-2 S …; test: SPR

| Binder | binding result [1] | Kd [2] |
| --- | --- | --- |
| B1 | binds | – |
| B2 | binds | – |
| B3 | – | ≤ 1 nM |
| B4 | – | ≤ 1 nM |
| B5 | – | ≤ 1 nM |
| B6 | – | ≤ 1 nM |
| B7 | – | ≤ 1 nM |
| B8 | – | ≤ 1 nM |
| B9 | – | ≤ 1 nM |
| B10 | – | ≤ 1 nM |
| B11 | – | ≤ 1 nM |
| B12 | – | ≤ 1 nM |
| B13 | – | ≤ 1 nM |
| B14 | – | ≤ 1 nM |
| B15 | – | ≤ 1 nM |
| B16 | – | ≤ 1 nM |
| B17 | – | ≤ 1 nM |
| B18 | – | ≤ 1 nM |
| B19 | – | ≤ 1 nM |
